Drawing on patent publication US20220033516A1, this text covers Kd for five molecules.

Positions count from the first letter of the chain named.

The target of the assay is recombinant human HER2 S310F ECD protein (human) (UniProt P04626). As to the kind of experiment: SPR, Biacore 8K, 37 C, antibody captured by anti-human Fc on CM4, antigen as analyte, 1:1 model. (In general: Surface plasmon resonance follows binding to a sensor surface in real time, without labels.)

B1: MHR0009/CD3 (bispecific antibody, human IgG1, kappa, N297A)
heavy 1: QSLEESGGRLVTPGTPLTLTCKASGFSLSSYAMIWVRQAPGKGLESIGMVYIHSGGTYYASWAKGRFTISKTSTTVDLKITSPTTEDTATYFCARYNGGGSGTDLWGPGTLVTVSSASTKGPSVFPLAPSSRSTSESTAALGCLVKDYFPEPVTVSWNSGALTSGVHTFPAVLQSSGLYSLSSVVTVPSSSLGTKTYTCNVDHKPSNTKVDKRVEPKSCDKTHTCPPCPAPELRRGPKVFLFPPKPKDTLMISRTPEVTCVVVDVSQEDPEVQFNWYVDGVEVHNAKTKPREEQFASTYRVVSVLTVLHQDWLNGKEYKCKVSNKGLPSSIEKTISKAKGQPREPQVYTLPPSREEMTKNQVSLTCLVKGFYPSDIAVEWESNGQPENNYKTTPPYLDSDGSFFLYSKLTVDKSRWQEGNVFSCSVMHEALHNHYTQESLSLSP
light 1: DIVMTQTPSSVSEPVGGTVTIKCQASQSIYSYLSWYQQKPGQRPKLLIYYASTLASGVPSRFKGSGSGTQFTLTISDLECADAATYYCQNNYGSDSNIYGIAFGGGTKVEIKRTVAAPSVFIFPPSDEQLKSGTASVVCLLNNFYPREAKVQWKVDNALQSGNSQESVTEQDSKDCTYSLSSTLTLSKADYEKHKVYACEVTHQGLSSPVTKSFNRGEC
heavy 2: QVQLVESGGGVVQPGGSLRLSCAASGFTFSNAWMHWVRQAPGKGLEWVAQIKDKSQNYATYVAESVKGRFTISRADSKNSIYLQMNSLKTEDTAVYYCRYVHYAAGYGVDIWGQGTTVTVSSASTKGPSVFPLAPSSRSTSESTAALGCLVKDYFPEPVTVSWNSGALTSGVHTFPAVLQSSGLYSLSSVVTVPSSSLGTKTYTCNVDHKPSNTKVDKRVEPKSCDKTHTCPPCPAPELRRGPKVFLFPPKPKDTLMISRTPEVTCVVVDVSQEDPEVQFNWYVDGVEVHNAKTKPREEQFASTYRVVSVLTVLHQDWLNGKEYKCKVSNKGLPSSIEKTISKAKGQPREPQVYTLPPSRKEMTKNQVSLTCLVKGFYPSDIAVEWESNGQPENNYKTTPPYLDSDGSFFLYSKLTVDKSRWQEGNVFSCSVMHEALHNHYTQKSLSLSP
light 2: DIVMTQSPLSLPVTPGEPASISCRSSQPLVHSNRNTYLHWYQQKPGQAPRLLIYKVSNRFSGVPDRFSGSGSGTDFTLKISRVEAEDVGVYYCGQGTQVPYTFGQGTKLEIKRTVAAPSVFIFPPSDEQLKSGTASVVCLLNNFYPREAKVQWKVDNALQSGNSQESVTEQDSKDSTYSLSSTLTLSKADYEKHKVYACEVTHQGLSSPVTKSFNRGEC
By Kd is commonly meant the constant that tells how readily two partners part at equilibrium. As for B1, the Kd was determined as 36.2 nM.

B2: MHR0060/CD3 (bispecific antibody, human IgG1, kappa, N297A)
heavy 1: QSVEESGGRLVTPGTPLTLTCTVSGFSLSSYAMGWVRQAPGKGLEYIGIISSSGSTYYANWAKGRFTISKTSTTVDLKITSPTTEDTATYFCARGVDIYGHPYATPYGMDLWGPGTLVTVSSASTKGPSVFPLAPSSRSTSESTAALGCLVKDYFPEPVTVSWNSGALTSGVHTFPAVLQSSGLYSLSSVVTVPSSSLGTKTYTCNVDHKPSNTKVDKRVEPKSCDKTHTCPPCPAPELRRGPKVFLFPPKPKDTLMISRTPEVTCVVVDVSQEDPEVQFNWYVDGVEVHNAKTKPREEQFASTYRVVSVLTVLHQDWLNGKEYKCKVSNKGLPSSIEKTISKAKGQPREPQVYTLPPSREEMTKNQVSLTCLVKGFYPSDIAVEWESNGQPENNYKTTPPYLDSDGSFFLYSKLTVDKSRWQEGNVFSCSVMHEALHNHYTQESLSLSP
light 1: EVVMTQTPASVEVAVGGTVTIKCQASQSISSYLAWYQQKPGQPPKLLIYYASTLASGVPSRFKGSGSGTEFTLTISDLECDDAATYYCQSNYGSSSSSYEDTFGGGTKVEIKRTVAAPSVFIFPPSDEQLKSGTASVVCLLNNFYPREAKVQWKVDNALQSGNSQESVTEQDSKDCTYSLSSTLTLSKADYEKHKVYACEVTHQGLSSPVTKSFNRGEC
heavy 2: B1 heavy 2
light 2: B1 light 2
With B2, the Kd turned out to be 40.4 nM.

B3: MHR0019/CD3 (bispecific antibody, human IgG1, kappa, N297A)
heavy 1: B2 heavy 1 with T12A, F26I, S27D, Y31D, G34A, N60S, P102A
light 1: B2 light 1 with E12S, V13E, A14P, A34S
heavy 2: B1 heavy 2
light 2: B1 light 2
In the case of B3, the Kd stood at 13.9 nM.

B4: MHR0016/CD3 (bispecific antibody, human IgG1, kappa, N297A)
heavy 1: QSVEESGGRLVTPGTPLTLTCTVSGFSLSSNAISWVRQAPGKGLEYIGIISSSGSTYYANWAKGRFTISKTSSTTVDLKMTSATTEDTATYFCARGVDIYGHAYATPYGMDLWGPGTLVTVSSASTKGPSVFPLAPSSRSTSESTAALGCLVKDYFPEPVTVSWNSGALTSGVHTFPAVLQSSGLYSLSSVVTVPSSSLGTKTYTCNVDHKPSNTKVDKRVEPKSCDKTHTCPPCPAPELRRGPKVFLFPPKPKDTLMISRTPEVTCVVVDVSQEDPEVQFNWYVDGVEVHNAKTKPREEQFASTYRVVSVLTVLHQDWLNGKEYKCKVSNKGLPSSIEKTISKAKGQPREPQVYTLPPSREEMTKNQVSLTCLVKGFYPSDIAVEWESNGQPENNYKTTPPYLDSDGSFFLYSKLTVDKSRWQEGNVFSCSVMHEALHNHYTQESLSLSP
light 1: B2 light 1 with E12S, V13E, A14P, A34S, A51S, D81A
heavy 2: B1 heavy 2
light 2: B1 light 2
Turning to B4, the Kd stood at 22.3 nM.

B5: MHR0010/CD3 (bispecific antibody, human IgG1, kappa, N297A)
heavy 1: QSVEESGGRLVTPGTPLTLTCTVSGFSLSRYAMSWVRQAPGKGLEWIGIIVSSSGSTYYATWATGRFTISKTSTTVDLKITSPTTEDTATYFCARIRGYDNIGYGYPWFYYFNLWGPGTLVTVSSASTKGPSVFPLAPSSRSTSESTAALGCLVKDYFPEPVTVSWNSGALTSGVHTFPAVLQSSGLYSLSSVVTVPSSSLGTKTYTCNVDHKPSNTKVDKRVEPKSCDKTHTCPPCPAPELRRGPKVFLFPPKPKDTLMISRTPEVTCVVVDVSQEDPEVQFNWYVDGVEVHNAKTKPREEQFASTYRVVSVLTVLHQDWLNGKEYKCKVSNKGLPSSIEKTISKAKGQPREPQVYTLPPSREEMTKNQVSLTCLVKGFYPSDIAVEWESNGQPENNYKTTPPYLDSDGSFFLYSKLTVDKSRWQEGNVFSCSVMHEALHNHYTQESLSLSP
light 1: DVVMTQTPASVEAAVGGTVTIKCQASQSISSYLAWYQQKPGQPPKLLIYDASDLASGVPSRFKGSGSGTQFTLTISDLECADAATYYCQSYYYSSSSSYGFAFGGGTKVEIKRTVAAPSVFIFPPSDEQLKSGTASVVCLLNNFYPREAKVQWKVDNALQSGNSQESVTEQDSKDCTYSLSSTLTLSKADYEKHKVYACEVTHQGLSSPVTKSFNRGEC
heavy 2: B1 heavy 2
light 2: B1 light 2
For the molecule B5, the Kd was 10.8 nM.
